{"source": "paper PMC6800368", "about": "“Rotational symmetry of the structured Chip/LDB-SSDP core module of the Wnt enhanceosome” (Proceedings of the National Academy of Sciences of the …, 2019)", "molecules": {"B1": {"name": "SSDP_(1–86) (domain or fragment, Drosophila, UniProt Q9VEB9 1-86, looked up)", "chain": "MYGKSKTSAVPSDAQAREKLALYVYEYLLHVGAQKAAQTFLSEIRWEKNITLGEPPGFLHTWWCVFWDLYCAAPERRDQCDHSSEA", "notes": "also called SSDP-N; N-terminal dimerization domain of SSDP; source: E. coli BL21(DE3)-RIL, purified (Ni-NTA, gel filtration)"}, "B2": {"name": "Lip-SSDP_(1–92) (domain or fragment, Drosophila, UniProt Q9VEB9 1-92, looked up)", "chain": "MYGKSKTSAVPSDAQAREKLALYVYEYLLHVGAQKAAQTFLSEIRWEKNITLGEPPGFLHTWWCVFWDLYCAAPERRDQCDHSSEAKAFHDY", "notes": "Drosophila SSDP, residues 1-92; Obligate dimer; dimers and tetramers are seen by SEC-MALS; also called SSDP-N; WT Lip-SSDP_(1–92); source: E. coli BL21(DE3)-RIL, purified (Ni-NTA, gel filtration); alone or coexpressed with MBP-LCCD from a bicistronic vector"}, "B3": {"name": "Lip-SSDP_(1–92) V65K (domain or fragment, Drosophila, UniProt Q9VEB9 1-92, looked up)", "chain": "B2 chain with V65K", "notes": "Drosophila SSDP, residues 1-92; also called SSDP V65K; source: E. coli BL21(DE3)-RIL, purified (Ni-NTA, gel filtration); alone or coexpressed with MBP-LCCD"}, "B4": {"name": "Lip-SSDP_(1–92) ML (I50E L52E) (domain or fragment, Drosophila, UniProt Q9VEB9 1-92, looked up)", "chain": "B2 chain with I50E, L52E", "notes": "Drosophila SSDP, residues 1-92; also called SSDP ML; source: E. coli BL21(DE3)-RIL, purified (Ni-NTA, gel filtration); alone or coexpressed with MBP-LCCD"}, "B5": {"name": "DD (XLdb1 20-200) (domain or fragment, Xenopus laevis, UniProt P70060 20-200, looked up)", "chain": "GIGRHTPYGNQTDYRIFELNKRLQNWTEECDNLWWDAFTTEFFEDDAMLTITFCLEDGPKRYTIGRTLIPRYFRSIFEGGATELYYVLKHPKESFHNNFVSLDCDQCTMVTQHGKPMFTQVCVEGRLYLEFMFDDMMRIKTWHFSIRQHRELIPRSILAMHAQDPQMLDQLSKNITRCGLS", "notes": "Xenopus laevis Ldb1 (XLdb1), dimerization domain, residues 20-200; also called dimerization domain of XLdb1; source: E. coli BL21(DE3)-RIL, purified (Ni-NTA, gel filtration)"}}, "key": {"[1]": {"molecular_target": "Lip-SSDP_(1–92) Mα3 (F66E L69A Y70A) (Drosophila) (UniProt Q9VEB9)", "test": "SEC-MALS; MBP-LCCD_(Chip) (WT or Mα6) coexpressed with Lip-SSDP_(1–92) (WT, V65K, Mα3 or ML), purified; Superdex-200 10/300, 2 mg/mL, PBS, 1 mM DTT; PAGE of SEC fractions"}, "[2]": {"molecular_target": "the molecule itself", "test": "crystal structure; SSDP_(1–86), tags removed; vapor diffusion at 19 °C; 2.4 Å"}, "[3]": {"molecular_target": "the molecule itself", "test": "SEC-MALS; Lip-SSDP_(1–92) WT and mutants alone; Superdex-200 10/300, loaded at 2 mg/mL, PBS, 1 mM DTT; self-association of SSDP dimers into tetramers"}, "[4]": {"molecular_target": "T1, MBP-LCCD_(Chip) (Drosophila, UniProt Q7KVG9-2 384-436)", "T1 construct": "Drosophila Chip, LCCD, residues 384-436; also called Chip-LCCD (residues 384 to 436); source: E. coli BL21(DE3)-RIL, bicistronic coexpression with Lip-SSDP_(1–92), purified (Ni-NTA, gel filtration)", "T1 sequence (looked up)": "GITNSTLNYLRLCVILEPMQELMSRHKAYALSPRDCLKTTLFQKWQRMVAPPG", "test": "SEC-MALS; MBP-LCCD_(Chip) (WT or Mα6) coexpressed with Lip-SSDP_(1–92) (WT, V65K, Mα3 or ML), purified; Superdex-200 10/300, 2 mg/mL, PBS, 1 mM DTT; PAGE of SEC fractions", "conditions": "both partners purified"}, "[5]": {"molecular_target": "the molecule itself", "test": "SEC-MALS; MBP-LCCD_(Chip) (WT or Mα6) coexpressed with Lip-SSDP_(1–92) (WT, V65K, Mα3 or ML), purified; Superdex-200 10/300, 2 mg/mL, PBS, 1 mM DTT; PAGE of SEC fractions"}, "[6]": {"molecular_target": "the molecule itself", "test": "crystal structure; DD (XLdb1 20-200) bound to a DARPin; 2.0 to 2.59 Å depending on the DARPin"}}, "note": "Substitutions are numbered along the chain they refer to. In names and notes the source's numbering stands. Several values for one entry are separate records, joined by “and”; a condition that tells them apart may be missing. Equal values may be shown once.", "data": [{"molecule": "Lip-SSDP_(1–92) Mα3 (F66E L69A Y70A) (from UniProt Q9VEB9 1-92) (domain or fragment)", "values": [{"measurement": "stoichiometry N", "setting": "[1]", "result": 2}]}, {"molecule": "B1", "values": [{"measurement": "binding result", "setting": "[2]", "result": "binds"}]}, {"molecule": "B2", "values": [{"measurement": "stoichiometry N", "setting": "[3]", "result": "2 and 4"}, {"measurement": "stoichiometry N", "setting": "[4]", "result": "~2 SSDP chains per LCCD (4:2, from the printed formula) and ~2 SSDP chains per LCCD"}]}, {"molecule": "B3", "values": [{"measurement": "stoichiometry N", "setting": "[5]", "result": 4}]}, {"molecule": "B4", "values": [{"measurement": "binding result", "setting": "[3]", "result": "binds"}, {"measurement": "stoichiometry N", "setting": "[4]", "result": 2, "unit": "SSDP chains per LCCD"}]}, {"molecule": "B5", "values": [{"measurement": "binding result", "setting": "[6]", "result": "binds"}]}]}
